From patent US11224632B2 (priority 2016, dated 2022) come the findings set out here.

“Also recorded” adds a separate entry of the source. Where no end group is shown, it is not given here. [ ]: non-standard residue; d: D form.

One assay deals with CaV2.2 channel (Homo sapiens, UniProt Q00975). In kind it is cell-based.
The next assay concerns the target T1, CaV1.2 channel (Oryctolagus cuniculus, UniProt P15381).
T1 construct: The coding regions of the two different alpha1 pore-forming units (CaValpha1) of the voltage-dependent calcium channel were fused in frame; expressed in transfected cells; host or cells: tsA201 cells, transient co-transfection
As to the kind of experiment: whole cell patch clamp of CaV1.2-mediated ion currents in tsA201 cells co-expressing CaV1.2 and CaVbeta2e. In kind it is cell-based, rabbit. To be noted: 150 nM peptide. A general note: The patch-clamp technique gives a direct electrical read-out from membranes.

T1 sequence (P15381 whole entry, the tested form may be a part): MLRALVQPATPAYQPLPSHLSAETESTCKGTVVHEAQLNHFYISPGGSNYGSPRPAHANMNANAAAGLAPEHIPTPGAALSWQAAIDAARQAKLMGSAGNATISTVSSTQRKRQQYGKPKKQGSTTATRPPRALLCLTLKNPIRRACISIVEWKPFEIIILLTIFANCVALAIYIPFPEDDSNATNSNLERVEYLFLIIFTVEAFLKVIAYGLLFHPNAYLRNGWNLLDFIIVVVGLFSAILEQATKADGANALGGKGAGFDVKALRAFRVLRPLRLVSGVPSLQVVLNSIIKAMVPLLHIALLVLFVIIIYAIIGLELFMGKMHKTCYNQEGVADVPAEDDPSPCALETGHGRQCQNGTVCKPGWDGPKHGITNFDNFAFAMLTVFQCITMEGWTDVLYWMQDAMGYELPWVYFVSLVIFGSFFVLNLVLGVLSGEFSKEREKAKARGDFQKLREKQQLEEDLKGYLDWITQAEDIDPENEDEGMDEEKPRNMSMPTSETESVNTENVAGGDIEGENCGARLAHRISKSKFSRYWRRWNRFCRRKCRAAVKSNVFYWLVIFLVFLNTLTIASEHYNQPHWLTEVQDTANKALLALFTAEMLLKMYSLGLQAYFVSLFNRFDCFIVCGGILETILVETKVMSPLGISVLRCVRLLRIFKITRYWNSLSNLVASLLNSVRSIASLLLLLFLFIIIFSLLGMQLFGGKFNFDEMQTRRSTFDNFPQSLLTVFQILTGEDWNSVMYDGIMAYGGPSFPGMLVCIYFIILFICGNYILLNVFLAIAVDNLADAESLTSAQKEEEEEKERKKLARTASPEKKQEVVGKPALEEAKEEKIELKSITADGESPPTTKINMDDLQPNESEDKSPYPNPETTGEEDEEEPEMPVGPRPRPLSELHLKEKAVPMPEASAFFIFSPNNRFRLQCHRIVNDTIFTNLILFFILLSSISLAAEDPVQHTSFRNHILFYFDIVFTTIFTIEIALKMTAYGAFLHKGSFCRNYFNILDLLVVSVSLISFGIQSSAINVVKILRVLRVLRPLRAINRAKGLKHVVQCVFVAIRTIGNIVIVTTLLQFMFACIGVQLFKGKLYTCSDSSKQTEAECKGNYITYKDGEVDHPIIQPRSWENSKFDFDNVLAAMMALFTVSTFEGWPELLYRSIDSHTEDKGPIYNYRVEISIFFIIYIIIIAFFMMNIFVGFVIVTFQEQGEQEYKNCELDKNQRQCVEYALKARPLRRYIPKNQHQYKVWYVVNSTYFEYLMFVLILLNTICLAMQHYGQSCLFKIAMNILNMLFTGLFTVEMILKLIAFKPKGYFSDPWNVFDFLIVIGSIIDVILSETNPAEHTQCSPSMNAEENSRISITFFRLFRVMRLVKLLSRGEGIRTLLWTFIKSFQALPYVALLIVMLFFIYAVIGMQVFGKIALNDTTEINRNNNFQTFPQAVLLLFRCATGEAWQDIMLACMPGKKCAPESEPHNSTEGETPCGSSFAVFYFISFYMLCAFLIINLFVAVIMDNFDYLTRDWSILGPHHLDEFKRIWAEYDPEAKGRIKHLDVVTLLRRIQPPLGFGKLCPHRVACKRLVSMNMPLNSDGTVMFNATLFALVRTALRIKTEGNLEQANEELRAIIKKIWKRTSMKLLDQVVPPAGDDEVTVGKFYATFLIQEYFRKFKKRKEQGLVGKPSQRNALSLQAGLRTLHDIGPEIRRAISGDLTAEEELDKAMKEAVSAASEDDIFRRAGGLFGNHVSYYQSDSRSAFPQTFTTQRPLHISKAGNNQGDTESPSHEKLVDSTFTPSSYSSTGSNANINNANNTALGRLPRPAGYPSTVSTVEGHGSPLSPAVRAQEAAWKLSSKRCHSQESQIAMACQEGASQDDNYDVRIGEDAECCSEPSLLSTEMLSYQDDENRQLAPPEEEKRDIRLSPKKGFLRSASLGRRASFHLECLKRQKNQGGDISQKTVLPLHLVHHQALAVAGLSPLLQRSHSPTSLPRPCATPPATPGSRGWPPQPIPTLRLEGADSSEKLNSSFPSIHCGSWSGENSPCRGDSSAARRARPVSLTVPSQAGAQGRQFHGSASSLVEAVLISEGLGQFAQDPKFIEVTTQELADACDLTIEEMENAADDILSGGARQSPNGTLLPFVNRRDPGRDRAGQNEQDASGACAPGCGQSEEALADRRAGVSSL
T1 sequence (Q8VGC3 1-611 isoform Q8VGC3-4 partner): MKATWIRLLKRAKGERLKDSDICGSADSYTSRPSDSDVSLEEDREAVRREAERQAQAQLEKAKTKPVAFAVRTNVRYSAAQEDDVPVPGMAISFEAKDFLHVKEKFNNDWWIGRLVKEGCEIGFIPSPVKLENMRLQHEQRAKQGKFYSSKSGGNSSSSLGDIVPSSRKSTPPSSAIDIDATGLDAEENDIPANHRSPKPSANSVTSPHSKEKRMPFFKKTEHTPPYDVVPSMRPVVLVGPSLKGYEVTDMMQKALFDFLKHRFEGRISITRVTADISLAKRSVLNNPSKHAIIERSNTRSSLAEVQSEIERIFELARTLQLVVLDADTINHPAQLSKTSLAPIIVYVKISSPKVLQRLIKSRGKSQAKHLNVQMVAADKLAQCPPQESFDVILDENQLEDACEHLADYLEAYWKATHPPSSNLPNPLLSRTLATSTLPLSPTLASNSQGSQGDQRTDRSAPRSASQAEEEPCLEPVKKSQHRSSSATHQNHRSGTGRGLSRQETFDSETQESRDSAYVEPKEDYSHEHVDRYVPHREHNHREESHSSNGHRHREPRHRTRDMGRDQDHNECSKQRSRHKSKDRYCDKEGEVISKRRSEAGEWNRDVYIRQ
Sequence of CaV2.2 channel (Q00975 whole entry, looked up): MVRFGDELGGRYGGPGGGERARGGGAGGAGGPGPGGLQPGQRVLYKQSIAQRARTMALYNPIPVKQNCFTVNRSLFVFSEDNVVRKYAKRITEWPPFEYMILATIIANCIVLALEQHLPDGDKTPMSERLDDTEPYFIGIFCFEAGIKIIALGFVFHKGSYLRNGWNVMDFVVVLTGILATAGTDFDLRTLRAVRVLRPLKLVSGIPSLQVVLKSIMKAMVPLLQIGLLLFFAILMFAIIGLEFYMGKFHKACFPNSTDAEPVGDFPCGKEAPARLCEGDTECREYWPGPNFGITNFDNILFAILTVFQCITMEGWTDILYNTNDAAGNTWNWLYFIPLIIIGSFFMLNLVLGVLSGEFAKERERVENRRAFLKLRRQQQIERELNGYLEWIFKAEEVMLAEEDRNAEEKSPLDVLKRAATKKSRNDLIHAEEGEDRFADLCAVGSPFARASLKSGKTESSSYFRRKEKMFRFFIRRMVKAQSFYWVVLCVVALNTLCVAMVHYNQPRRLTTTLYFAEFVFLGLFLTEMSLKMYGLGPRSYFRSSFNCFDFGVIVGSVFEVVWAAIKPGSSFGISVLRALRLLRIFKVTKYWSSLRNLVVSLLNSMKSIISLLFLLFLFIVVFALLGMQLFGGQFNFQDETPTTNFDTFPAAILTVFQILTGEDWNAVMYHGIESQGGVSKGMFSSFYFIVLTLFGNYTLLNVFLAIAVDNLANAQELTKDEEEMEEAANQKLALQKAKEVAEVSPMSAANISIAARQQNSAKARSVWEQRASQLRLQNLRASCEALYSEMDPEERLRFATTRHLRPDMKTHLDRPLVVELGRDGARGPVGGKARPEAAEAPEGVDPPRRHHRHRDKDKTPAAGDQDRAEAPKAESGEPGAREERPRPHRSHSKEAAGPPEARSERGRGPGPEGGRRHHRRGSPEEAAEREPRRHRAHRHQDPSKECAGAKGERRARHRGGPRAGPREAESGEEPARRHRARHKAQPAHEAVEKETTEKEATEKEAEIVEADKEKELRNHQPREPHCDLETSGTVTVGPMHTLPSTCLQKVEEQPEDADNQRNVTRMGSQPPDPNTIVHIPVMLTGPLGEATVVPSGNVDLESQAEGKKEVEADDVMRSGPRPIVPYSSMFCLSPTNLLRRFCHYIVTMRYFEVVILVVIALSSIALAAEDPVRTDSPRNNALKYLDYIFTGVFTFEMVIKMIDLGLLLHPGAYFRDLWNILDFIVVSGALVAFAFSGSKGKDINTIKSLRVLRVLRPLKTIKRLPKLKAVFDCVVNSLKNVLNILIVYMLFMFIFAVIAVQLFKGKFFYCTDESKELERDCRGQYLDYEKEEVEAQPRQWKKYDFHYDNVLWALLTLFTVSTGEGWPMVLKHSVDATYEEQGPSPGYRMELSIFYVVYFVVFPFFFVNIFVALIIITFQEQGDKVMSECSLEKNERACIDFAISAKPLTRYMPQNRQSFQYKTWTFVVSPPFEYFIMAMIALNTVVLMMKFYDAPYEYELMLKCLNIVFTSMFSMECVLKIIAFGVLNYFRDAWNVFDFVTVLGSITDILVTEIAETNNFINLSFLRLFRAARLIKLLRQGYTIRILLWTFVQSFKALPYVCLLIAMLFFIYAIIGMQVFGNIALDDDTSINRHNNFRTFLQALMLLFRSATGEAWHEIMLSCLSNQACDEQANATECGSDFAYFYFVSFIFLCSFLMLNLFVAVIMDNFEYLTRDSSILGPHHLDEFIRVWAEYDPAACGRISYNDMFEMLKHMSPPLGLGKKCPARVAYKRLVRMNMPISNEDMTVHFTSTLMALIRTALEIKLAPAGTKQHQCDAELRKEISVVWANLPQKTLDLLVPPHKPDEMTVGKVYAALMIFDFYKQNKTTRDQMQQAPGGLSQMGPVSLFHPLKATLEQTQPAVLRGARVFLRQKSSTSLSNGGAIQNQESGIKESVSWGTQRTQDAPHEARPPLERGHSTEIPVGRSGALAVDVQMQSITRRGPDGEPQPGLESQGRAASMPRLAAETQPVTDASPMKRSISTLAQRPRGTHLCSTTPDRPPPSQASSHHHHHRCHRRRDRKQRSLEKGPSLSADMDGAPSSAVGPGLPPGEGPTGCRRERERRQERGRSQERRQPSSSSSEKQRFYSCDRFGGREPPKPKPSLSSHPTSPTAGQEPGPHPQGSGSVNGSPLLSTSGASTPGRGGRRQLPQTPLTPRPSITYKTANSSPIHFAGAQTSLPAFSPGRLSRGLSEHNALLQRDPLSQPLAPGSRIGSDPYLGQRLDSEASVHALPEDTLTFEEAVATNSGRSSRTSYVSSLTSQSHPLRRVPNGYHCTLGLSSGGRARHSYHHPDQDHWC

Take omega-conotoxin [reference compound]: at CaV2.2 channel, the “effect on CaV2.2-mediated ion currents (control blocker)” value is “interrupted”.

Take “ptlhthnrrrrr ([dP][dT][dL][dH][dT][dH][dN][dR][dR][dR][dR][dR]) [RD2]”: in the assay with CaV2.2 channel, the “change in voltage-dependent activation of the CaV2.2 channel (activation curve)” value is on record as “not accompanied by a change in voltage-dependent activation of the channel”, the “effect on CaV2.2-mediated ion current” value is reported as “significant reduction in the ion current; also recorded: blocks the CaV2.2 channel” and the “reduction in the ion current at all tested voltages (current-to-voltage plot)” value is listed as “up to 55%”. Moreover, in the assay with CaV1.2 channel, the “voltage dependency of activation of the CaV1.2 channel” value was “not affected”. The “effect on CaV1.2-mediated ion current” value in the assay with CaV1.2 channel (pulses -90 mV to +10 mV) is recorded as “remained virtually unchanged; also recorded: insensitive”.

Take “rprtrlhthrnr ([dR][dP][dR][dT][dR][dL][dH][dT][dH][dR][dN][dR]) [D3]”: in the assay with CaV2.2 channel, the “change in voltage-dependent activation of the CaV2.2 channel (activation curve)” value is on record as “not accompanied by a change in voltage-dependent activation of the channel”, the “effect on CaV2.2-mediated ion current” value was “significant reduction in the ion current; also recorded: blocks the CaV2.2 channel”, the “reduction in the ion current at all tested voltages (current-to-voltage plot)” value is “up to 54%” and the “reversibility of inhibition of CaV2.2 current” value is “reversible”.
